# Measured values reported in the DeepSol protein solubility set.
# Test: soluble on expression in E. coli; label from the status in PepcDB or PDB records
row,Sequence,soluble on expression in E. coli
1,MSLGIENDRKLVVNCLPLTEAERAQFTRAAKGMPQEFVGDPAQRGSMNWTAEIPDELKAYATAVIGNITPETCAQCPRLEWLQTWSAGVDKYQHPGILQPGSMLTNATGAYGQSVSEHMFAMMWAIMKNLHIYAVGNPNAAWQDAGRVISPDGKTALIIGTGDIGSHFARLCKSVGMSTIGIRRNPTVEAPGIDHMVGFESLDDVLQYADVIAMCVPSTPSTHHLLNAERIAKLKTDATVINAGRGDAIDTQALADALANGMIRGAGLDVTEPEPLPAASPLWSEPKCLITPHVAGGNHLESTERRIIAIALGNVRCYANGQSLDNRMPLKGEGHHHHHH,soluble
2,MKHHHHHHHHGGLVPRGSHGMTKKIVAIWAQDEEGVIGKDNRLPWYLPAELQHFKETTLNHAILMGRVTFDGMGRRLLPKRETLILTRNPEEKIDGVATFHDVQSVLDWYSAQEKNLYIVGGKQIFQAFEPYLDEVIVTHIHARVEGDTYFPAEFDLSLFETVSSKFYTKDEKNPYDFTIQYRKRKEVLE,soluble
3,MRARSDAGGQSVKSRTSNRSRSSRRSRVRSSISALVDNPQARPRELPVLCGWPVVRVEPVCEFVPEPVCGQAEVLGEPAAAHRVTSARRSPSTTVCSRSQKASAVVISSVSSVARVRRASVSSVDATTA,not soluble
4,MGSDKIHHHHHHSRSTKGVRELSLFNRHTGEYNNGSYWVDGHYQSEVLADFSHLLRDHRQNVAAPMDKRLFDLLYTLKSTLNTDKEIHVISGYRSPKTNAMLAGKSGGVAKKSYHMQGMAMDIAIPGVNLKTIRDAALSLKLGGVGYYPKSGFVHVDCGPVRHW,not soluble
5,MSLRYDRAGDQHYDVASALIKSMRGSDVDAALHYLARMVEAGEDPRFIARRIVIAAAEDVGMADPSALQTAVAAMHAVAQIGMPEARIVLAQAVVHNATAPKSNAAYAGINAAIADVRAGLGGSVPAHLRDAHYAGAGKLGHGKGYVYTHDVPAGVAEQQYAPDELVGKDYYVPTDRGFENQLRERLARLRRVLRGREGHHHHHH,soluble
6,YGAWAAQELQAKLAEIGAPIQGNREELVERLQSYTRQTGIVLNRP,soluble
7,MKKALTTRHPPIDVYCICREVTEVMEKLHAADAETIPLASNIQMVNMVNNYVIMSYGLLHDDYEYGAITESCRKDVLLLLRELFPRKIYLWEN,soluble
8,MVKVEDAIVARLESHGYHFEILVDPDAIERIRKGNIDIENDLAFPEVYKDVRKGEKASDDSLKEAFKTTVIAQVAIEIVKKGQIQLTTEQRREMYDERRKQIVNLIAREGINPQTNTPHTPYRISQAMDEAKVKIDPLKPAEDQVQNVLKAIMPIIPIRLEKAKIAVKLIGDAYGKLYGELAKSGYM,not soluble
9,MTITNSKAEAWELIGNQFWTIGRVAARPSDRENDIFLENIVPGSTVAVIGASTRFLIEKALERGASVTVFDFSQRMCDDLAEALADRCVTIDLLDITAEIPKELAGHFDFVLNDRLINRFTTEEARRACLGMLSLVGSGTVRASVKLGFYDIDLKLIEYGEQSGTLAKFFDPSDKTFHFREAGDVLDRALVPHGLIDKPTLLEWYRRRGKETRFDDEDVRAL,not soluble
10,GMTQHITRMRREIDEIPEAVQRLLDHGAQDVARVAAVLRLRDPSFVATVARGSSDHVCTYLSYAAELLLGLPVASLGPSVASVYDARLRLDRALCLAVSQSGKSPDIVAMTRNAGRDGALCVALTNDAASPLAGVSAHTIDIHAGPELSVAATKTFVTSAVAGLMLLADWAEDDGLRAALGNLPETLAAASRIDWPEMRVAIGARPSLFTLGRGTSLAVSNEAALKFKETCQLHAESYSSAEVLHGPVSIVEEGFPVLGFAAGDAAEAPLAEIADQIAAKGATVFATTGRVTRARVLEHVRSGHALTDPLSLIVSFYSMVEAFASERGIDPDAPRHLNKVTETV,soluble
11,DDGDCKNIYRYSPKDGKFEKLNLETDVTSAFALSEYNPGIAAYIGQSDYNAGVAYLYDMKKKTSSLLADPMKPILEKIELGKTEPWNFTASDGTVITGKMCLPPNFDPNKKYPMIVYYYGGTTPTTRGISNPYCAQLFASRDYVVYVIQPSGTIGFGQEFSARHVNAWGKRTADDIIEGTKQFCKEHPFVDEKKIGCLGASYGGFMTQYLQTQTDIFAAAVSHAGISDVTSYWGEGYWGYSYNAIAAADSYPWKDPDLFTKQGSLFNADKINTPLLLLHGTVDTNVPIGESIQLFNALKILGKTVEFVTVDGENHFISDYDKRIKWHNSIMAWFARWLQ,not soluble
12,MKKDLISVVMSAYNSEKFISDSISSILDQTYENWELIIINDASSDNTLKIVNQFSEKDPRIKVIDNENNLGLTISLNIGINNSKGEFIARLDSDDFAEPSRLEKELDHLHAYPEAGLVGSGAHLINSSGNKIGSMNVMSQPYFVNRFLINLNPFIHSSIMVRKKALDNVGSYREKFRYSQDYDLILRLSDKYKLSNIALPLIRWRVSDSSVTMQHHTLQRIYADIAREFAIERRNSGHDSYESTEFDTLIHEMRIRNQGRYLCDHGVYDLLFNKKYKEGCSELIKGISKGGFPYNSFYRGITQVISKVNIQLEHHHHHH,not soluble
13,VAARTGNDPATDVRSTILTAAETCFERFGITKTTMEDVARAADMSRATVYRYFSDRESLIIESVARRARKNMKPARAFIAKWPTIEERLVEGICNNVESGLRDPMVHLLVSPSEMTLANSLLTTSGKAVELTSELWEPILRDAQEAGDIRADVDLALLCEWISELEIMCISQLNGGTGSLERFREKLRAFLVPSLLPAGN,not soluble
14,MDAEPSTPKQTEQEPSALSSADQVTNEPMESIIRPSILDSNSKMGNKQEDEDRLKKDSGPSTSNQAEQDPSKSADQFVTLSRPTTLGFSPTFESLQNNQEDTKQSTRLLNEDQDRDTLLKKHVDSLYALSERCIIFAGVLNQFLPTEKRRSKTDFLTENMLAALLSELITQIEVSDLRAKANPAVGKQEGDRCKELVSEKSCIEESLRNFREFAKEDSKTDTSSKLDPPNLNTLLYQLEGIEKIMNSIQTTLEANNFNDSENGSNEVTPNKSQLEGDSLKEVPSEESQIVDSAHDGDSRKEGESEVSEMDNVALDKDLPEETETDKTLVDEIPLEDLDKEPLDENPLEGSPGPAQNMTERNIRKRPNSRHDNVSPSKLQKV,soluble
15,ANSMLKGKVALVTGASRGIGRAIAKRLANDGALVAIHYGNRKEEAEETVYEIQSNGGSAFSIGANLESLHGVEALYSSLDNELQNRTGSTKFDILINNAGIGPGAFIEETTEQFFDRMVSVNAKAPFFIIQQALSRLRDNSRIINISSAATRISLPDFIAYSMTKGAINTMTFTLAKQLGARGITVNAILPGFVKTDMNAELLSDPMMKQYATTISAFNRLGEVEDIADTAAFLASPDSRWVTGQLIDVSGGSCL,soluble
16,SPNPPKLTKQMNAIIDTVINYKDSSGRQLSEVFIQLPSRKELPEYYELIRKPVDFKKIKERIRNHKYRSLGDLEKDVMLLCHNAQTFNLEGSQIYEDSIVLQSVFKSARQ,soluble
17,MAASPLVVQKTEEEWRAVLSPEQFRILRQKGTEKPGTGEYDKFFEEGIFDCVGCKTPLYKSTTKFDSGCGWPAFFEGLPGAINRTPDPDGRRTEITCAACDGHLGHVFKGEGYGNPTDERHCVNSVSISFNPAKSSSII,soluble
18,SVFPQQTGQLAELQPQDRAGARASWMPMFQRRRRRDTHFPICIFCCGCCHRSKCGMCCKT,not soluble
19,MNTKCLREKIEKIKPHLLKTASDTLQGYVFGCMIGVFSSSEKPSLRHVHESGKSFAKVSMIYSTTESALQLYGSKNAPLNSLISGAVAGGLGVNDRSKKSILTGAASFGLYTGMSNIFSVQGQK,not soluble
20,MNYYSEKIEVVKLADQVAAKLQQLIGSGEYKKGDKIPTEPELMARFGVGRSTVRESVRILANAGLLSVLQGKGTFVQDTTVVAEPLHQRLRRANNKELNEVRHMLEITMVQKAAENRTEKEVKQMRTLLNQRRRAIEEQLQDECLNADIAFHVVIAEASKNQVLIDLYKTFSKVISEYFQTEYPDTKAYKRSQALHEKLCDAIATKESKKAAEYMSQILSLD,not soluble
21,LRRGHLKLQRDGQIIGHTPEEWEQIFREVWPEYEIEPNPLPGYAPFDIGMWLTVEAPAYAVWIDPEDGSEYWAG,not soluble
22,MRRSAAPSQLQGNSFKKPKFIPPGRSNPGLNEEITKLNPDIKLFEGVAINNTFLPSQNDLRICSLNLPSEESTREINNRDNCSGKYCFEAPTLATLDPPHTVHSAPKEVAVSKEQEEKSDSLVKYFSVVWCKPSKKKHKKWEGDAVLIVKGKSFILKNLEGKDIGRGIGYKFKELEKIEEGQTLMICGKEIEVMGVISPDDFSSGRCFQLGGGSTAISHSSQVARKCFSNPFKSVCKPSSKENRQNDFQNCKPRHDPYTPNSLVMPRPDKNHQWVFNKNCFPLVDVVIDPYLVYHLRPHQKEGIIFLYECVMGMRMNGRCGAILADEMGLGKTLQCISLIWTLQCQGPYGGKPVIKKTLIVTPGSLVNNWKKEFQKWLGSERIKIFTVDQDHKVEEFIKSIFYSVLIISYEMLLRSLDQIKNIKFDLLICDEGHRLKNSAIKTTTALISLSCEKRIILTGTPIQNDLQEFFALIDFVNPGILGSLSSYRKIYEEPIILSREPSASEEEKELGERRAAELTCLTGLFILRRTQEIINKYLPPKIENVVFCRPGALQIELYRKLLNSQVVRFCLQGLLENSPHLICIGALKKLCNHPCLLFNSIKEKECSSTCDKNEEKSLYKGLLSVFPADYNPLLFTEKESGKLQVLSKLLAVIHELRPTEKVVLVSNYTQTLNILQEVCKRHGYAYTRLDGQTPISQRQQIVDGFNSQHSSFFIFLLSSKAGGVGLNLIGGSHLILYDIDWNPATDIQAMSRVWRDGQKYPVHIYRLLTTGTIEEKIYQRQISKQGLCGAVVDLTKTSEHIQFSVEELKNLFTLHESSDCVTHDLLDCECTGEEVHTGDSLEKFIVSRDCQLGPHHQKSNSLKPLSMSQLKQWKHFSGDHLNLTDPFLERITENVSFIFQNITTQATGT,soluble
23,MGSDKIHHHHHHMANNYMKRKDRIILTAVEIIDQLGVQGLTIREIASRQEISEAAIYRHFANKSEILLGTIDYFSSYDALLFRTIESQNMKAWEGITFLLASYTEYYENYPAITAVTFTQEAFQLEPEARERMENVIDNRLRFIKQMVIKGQKEGEFTRDICSEGIVDIIFGTVQFIILRWRAKNYDFALKEHVLSTLSILIEAFSTVKLENRFAWGGVFNQEVSSSTFDSVLTRPGLFLEKGKDQVNEKSEG,not soluble
24,MNTTDRQITFSALSCLLSYPDEEWRAELPDWKALIQEIGNRQIREKLLHFFETSASYSPEALIEHYVYTFDFGKKTNMYVTYFNSGEQRERGIELLHLKNTYEQSGFLPTEKELPDYLPLMLEFAAAAEIEAARSVFEKYLSNVRELASRLEKNDSIYAELLHVLLAALENIGVRESVEGAVQALEHHHHHH,not soluble
25,MAHHHHHHMGTLEAQTQGPGSMSSSIEIFPDSDILVAAAGKRLVGAIGAAVAARGQALIVLTGGGNGIALLRYLSAQAQQIEWSKVHLFWGDERYVPEDDDERNLKQARRALLNHVDIPSNQVHPMAASDGDFGGDLDAAALAYEQVLAASAAPGDPAPNFDVHLLGMGPEGHINSLFPHSPAVLESTRMVVAVDDSPKPPPRRITLTLPAIQRSREVWLLVSGPGKADAVAAAIGGADPVSVPAAGAVGRQNTLWLLDRDAAAKLPS,soluble
